B1: human IgG2 anti-mouse CD40 surface displayed antibody, V234Q/V266L/S267E/H268S/E269V (antibody)
light chain (with the P2A rest): DTVLTQSPALAVSPGERVTISCRASDSVSTLMHWYQQKPGQQPKLLIYLASHLESGVPARFSGSGSGTDFTLTIDPVEADDTATYYCQQSWNDPWTFGGGTKLELKRTVAAPSVFIFPPSDEQLKSGTASVVCLLNNFYPREAKVQWKVDNALQSGNSQESVTEQDSKDSTYSLSSTLTLSKADYEKHKVYACEVTHQGLSSPVTKSFNRGECGSGATNFSLLKQAGDVEENPG
heavy: EVQLVESDGGLVQPGRSLKLPCAASGFTFSDYYMAWVRQAPTKGLEWVASISYDGSSTYYRDSVKGRFTISRDNAKSTLYLQMDSLRSEDTATYYCGRHSSYFDYWGQGVMVTVSSASTKGPSVFPLAPCSRSTSESTAALGCLVKDYFPEPVTVSWNSGALTSGVHTFPAVLQSSGLYSLSSVVTVPSSNFGTQTYTCNVDHKPSNTKVDKTVERKCCVECPPCPAPPQAGPSVFLFPPKPKDTLMISRTPEVTCVVVDLESVDPEVQFNWYVDGVEVHNAKTKPREEQFNSTFRVVSVLTVVHQDWLNGKEYKCKVSNKGLPAPIEKTISKTKGQPREPQVYTLPPSREEMTKNQVSLTCLVKGFYPSDIAVEWESNGQPENNYKTTPPMLDSDGSFFLYSKLTVDKSRWQQGNVFSCSVMHEALHNHYTQKSLSLSPGKLEPPPSTVSNMATVAVLVVLGAAIVTGAVVAFVMKMRRRNTGGKGGDYALAPGSQTSDLSLPDCKVMVHDPHSLA
notes: As m1 with the Fc mutations; copies: 2 + 2
B2: human IgG2 anti-mouse CD40 surface displayed antibody, V266L/S267E/H268S/E269V/P271C (antibody, name in EU numbering)
light chain (with the P2A rest): B1 light chain (with the P2A rest)
heavy chain: B1 heavy with Q230V, P266C
notes: As m1 with the Fc mutations
B3: human IgG2 anti-mouse CD40 surface displayed antibody, V266L/S267E/H268S/E269V (antibody, name in EU numbering)
light chain (with the P2A rest): B1 light chain (with the P2A rest)
heavy chain: B1 heavy with Q230V
notes: As m1 with the Fc mutations
B4: human IgG2 anti-mouse CD40 surface displayed antibody, V266L/S267E/H268S/E269A/P271C (antibody, name in EU numbering)
light chain (with the P2A rest): B1 light chain (with the P2A rest)
heavy chain: B1 heavy with Q230V, V264A, P266C
notes: As m1 with the Fc mutations
B5: human IgG2 anti-mouse CD40 surface displayed antibody, V266L/S267E/H268S/E269G/P271T (antibody, name in EU numbering)
light chain (with the P2A rest): B1 light chain (with the P2A rest)
heavy chain: B1 heavy with Q230V, V264G, P266T
notes: As m1 with the Fc mutations
B6: human IgG2 anti-mouse CD40 surface displayed antibody, V266L/S267E/E269K/P271G (antibody, name in EU numbering)
light chain (with the P2A rest): B1 light chain (with the P2A rest)
heavy chain: B1 heavy with Q230V, S263H, V264K, P266G
notes: As m1 with the Fc mutations
B7: human IgG2 anti-mouse CD40 surface displayed antibody, V266L/S267M/H268E/P271Q (antibody, name in EU numbering)
light chain (with the P2A rest): B1 light chain (with the P2A rest)
heavy chain: B1 heavy with Q230V, E262M, S263E, V264E, P266Q
notes: As m1 with the Fc mutations
B8: human IgG2 anti-mouse CD40 surface displayed antibody, V266L/S267D/H268D/E269D/P271Q (antibody, name in EU numbering)
light chain (with the P2A rest): B1 light chain (with the P2A rest)
heavy chain: B1 heavy with Q230V, E262D, S263D, V264D, P266Q
notes: As m1 with the Fc mutations
B9: anti-human OX40 antibody, human IgG2 Fc mutant Mut_22 (V266L/S267M/H268E/P271Q) (antibody, name in EU numbering)
heavy: QVQLQESGPGLVKPSGTLSLTCAVSGGSISSSIWWSWVRQPPGKGLEWIGEIHHSGNTNCNPSLKSRVTISIDKSKNQFSLKLTSVTAADTAVYYCARAGTGTTLDYWGQGTLVTVSSASTKGPSVFPLAPCSRSTSESTAALGCLVKDYFPEPVTVSWNSGALTSGVHTFPAVLQSSGLYSLSSVVTVPSSNFGTQTYTCNVDHKPSNTKVDKTVERKCCVECPPCPAPPVAGPSVFLFPPKPKDTLMISRTPEVTCVVVDLMEEDQEVQFNWYVDGVEVHNAKTKPREEQFNSTFRVVSVLTVVHQDWLNGKEYKCKVSNKGLPAPIEKTISKTKGQPREPQVYTLPPSREEMTKNQVSLTCLVKGFYPSDIAVEWESNGQPENNYKTTPPMLDSDGSFFLYSKLTVDKSRWQQGNVFSCSVMHEALHNHYTQKSLSLSPGK
light: EIVLTQSPGTLSLSPGERATLSCRASQSVSGDYLAWYQQKLGQAPRLLIYGASIRATGIPDRFSGSGSGTDFTLTISKLEPEDFAVYYCQQYGSSPLTFGGGTKVEIKRTVAAPSVFIFPPSDEQLKSGTASVVCLLNNFYPREAKVQWKVDNALQSGNSQESVTEQDSKDSTYSLSSTLTLSKADYEKHKVYACEVTHQGLSSPVTKSFNRGEC
B10: anti-human OX40 antibody, human IgG2 Fc mutant Mut_24 (V266L/S267E/H268S/E269G/P271T) (antibody, name in EU numbering)
heavy: B9 heavy with M264E, E265S, E266G, Q268T
light: B9 light
B11: anti-human OX40 antibody, human IgG2 Fc mutant Mut_23 (V266L/S267E/E269K/P271G) (antibody, name in EU numbering)
heavy: B9 heavy with M264E, E265H, E266K, Q268G
light: B9 light

Residue numbers refer to the chain shown, from its start. In names and notes the source's numbering stands.

The target of the first experiment is T1, Biotin-FcγRIIB (human, UniProt P31994 43-217, limits assumed, biotin label).
T1 construct: Soluble labelled protein used to stain and sort the display cells; also called human FcγRIIB; CD32b
T1 sequence (looked up): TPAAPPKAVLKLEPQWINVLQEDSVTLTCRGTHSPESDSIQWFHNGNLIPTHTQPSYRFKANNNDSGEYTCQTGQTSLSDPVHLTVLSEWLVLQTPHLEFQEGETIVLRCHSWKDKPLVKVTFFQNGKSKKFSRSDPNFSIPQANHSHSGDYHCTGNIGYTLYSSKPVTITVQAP
Description: NGS of 3T3 display library C2 flow-sorted for FcγRIIB binding.
In the case of B1, the “enrichment factor, percentage after 3rd sorting/percentage after 2nd sorting” value was determined as 11.4 ratio; the “percentage after 2nd sorting” value turned out to be 0.01%; the “percentage after 3rd sorting” value is 0.09%.

Consider B2, for which the “enrichment factor, percentage after 2nd sorting/percentage after 1st sorting” value turned out to be 6.97 ratio; the “enrichment factor, percentage after 3rd sorting/percentage after 2nd sorting” value was found to be 12.6 ratio; the “percentage after 1st sorting” value came to 0%; the “percentage after 2nd sorting” value is 0.01%. Also, the “percentage after 3rd sorting” value was found to be 0.11%.

B3: the “enrichment factor, percentage after 1st sorting/percentage before sorting” value was 99.9 ratio; the “enrichment factor, percentage after 2nd sorting/percentage after 1st sorting” value is 12.8 ratio; the “enrichment factor, percentage after 3rd sorting/percentage after 2nd sorting” value is 1.95 ratio; the “enrichment factor, percentage after 3rd sorting/percentage before sorting” value was determined as 2500 ratio. The “increased factor, mutant enrichment factor/wild-type enrichment factor” value was found to be 1780 ratio; the “percentage after 1st sorting” value is 0.17%; the “percentage after 2nd sorting” value came out at 2.13%; the “percentage after 3rd sorting” value came out at 4.15%. Moreover, the percentage before sorting stood at 0%.

In the case of B4, the “enrichment factor, percentage after 1st sorting/percentage before sorting” value amounted to 60.5 ratio; the “enrichment factor, percentage after 2nd sorting/percentage after 1st sorting” value is 3.84 ratio; the “enrichment factor, percentage after 3rd sorting/percentage after 2nd sorting” value was found to be 7.11 ratio; the “enrichment factor, percentage after 3rd sorting/percentage before sorting” value is 1650 ratio. The “increased factor, mutant enrichment factor/wild-type enrichment factor” value was found to be 1180 ratio; the “percentage after 1st sorting” value turned out to be 0.25%; the “percentage after 2nd sorting” value is 0.95%; the “percentage after 3rd sorting” value is 6.76%. This molecule came in with a percentage before sorting of 0%.

Regarding B5, the “enrichment factor, percentage after 1st sorting/percentage before sorting” value is 32.7 ratio; the “enrichment factor, percentage after 2nd sorting/percentage after 1st sorting” value worked out at 9.34 ratio; the “enrichment factor, percentage after 3rd sorting/percentage after 2nd sorting” value amounted to 5.2 ratio; the “enrichment factor, percentage after 3rd sorting/percentage before sorting” value was determined as 1590 ratio. For the same molecule, the “increased factor, mutant enrichment factor/wild-type enrichment factor” value was found to be 1130 ratio; the “percentage after 1st sorting” value was determined as 0.03%; the “percentage after 2nd sorting” value is 0.24%; the “percentage after 3rd sorting” value is 1.23%. Besides, the percentage before sorting is 0%.

With B6, the “enrichment factor, percentage after 1st sorting/percentage before sorting” value turned out to be 214 ratio; the “enrichment factor, percentage after 2nd sorting/percentage after 1st sorting” value is 2.92 ratio; the “enrichment factor, percentage after 3rd sorting/percentage after 2nd sorting” value is 2.94 ratio; the “enrichment factor, percentage after 3rd sorting/percentage before sorting” value turned out to be 1840 ratio. For the same molecule, the “increased factor, mutant enrichment factor/wild-type enrichment factor” value came to 1310 ratio; the “percentage after 1st sorting” value was found to be 0.14%; the “percentage after 2nd sorting” value is 0.42%; the “percentage after 3rd sorting” value was 1.22%. This molecule also displayed a percentage before sorting of 0%.

With B7, the “enrichment factor, percentage after 1st sorting/percentage before sorting” value worked out at 229 ratio; the “enrichment factor, percentage after 2nd sorting/percentage after 1st sorting” value turned out to be 6.6 ratio; the “enrichment factor, percentage after 3rd sorting/percentage after 2nd sorting” value worked out at 0.78 ratio; the “enrichment factor, percentage after 3rd sorting/percentage before sorting” value is 1180 ratio. For the same molecule, the “increased factor, mutant enrichment factor/wild-type enrichment factor” value was determined as 844 ratio; the “percentage after 1st sorting” value was determined as 2.59%; the “percentage after 2nd sorting” value amounted to 17.1%; the “percentage after 3rd sorting” value was found to be 13.3%. Also, the percentage before sorting was 0.01%.

As for B8, the “enrichment factor, percentage after 1st sorting/percentage before sorting” value came to 122 ratio; the “enrichment factor, percentage after 2nd sorting/percentage after 1st sorting” value worked out at 4.07 ratio; the “enrichment factor, percentage after 3rd sorting/percentage after 2nd sorting” value is 3.8 ratio; the “enrichment factor, percentage after 3rd sorting/percentage before sorting” value stood at 1880 ratio. Also, the “increased factor, mutant enrichment factor/wild-type enrichment factor” value was 1340 ratio; the “percentage after 1st sorting” value turned out to be 0.12%; the “percentage after 2nd sorting” value turned out to be 0.49%; the “percentage after 3rd sorting” value was found to be 1.88%. Besides, the percentage before sorting was 0%.

The target in a further experiment is human OX40 (human) (UniProt P43489). Description: cell-based or functional assay.
human OX40 (human), sequence (P43489 29-277): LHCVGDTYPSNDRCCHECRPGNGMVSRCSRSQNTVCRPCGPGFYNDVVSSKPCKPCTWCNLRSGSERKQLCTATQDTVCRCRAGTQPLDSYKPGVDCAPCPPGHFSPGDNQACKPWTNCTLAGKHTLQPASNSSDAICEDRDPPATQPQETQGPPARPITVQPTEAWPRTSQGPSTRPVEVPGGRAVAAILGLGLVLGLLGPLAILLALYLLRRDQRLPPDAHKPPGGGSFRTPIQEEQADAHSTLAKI
As for B9, the Average increased factor of the activity over wild-type IgG2 of two experiments stood at 9.9; the Average relative activity of two experiments amounted to 0.43; the Experiment 2 CFSE fluorescence intensity, 0.1 µg/ml turned out to be 2290; the Experiment 2 CFSE fluorescence intensity, 1 µg/ml was 1790. This molecule gave an Experiment 2 average relative activity of 0.43; an Experiment 2 relative activity, 0.1 µg/ml of 0.3; an Experiment 2 relative activity, 1 µg/ml of 0.56.

B10: the Average increased factor of the activity over wild-type IgG2 of two experiments was determined as 9.75; the Average relative activity of two experiments is 0.43; the Experiment 1 CFSE fluorescence intensity, 0.01 µg/ml was found to be 912; the Experiment 1 CFSE fluorescence intensity, 0.1 µg/ml stood at 812. This molecule also showed an Experiment 1 CFSE fluorescence intensity, 1 µg/ml of 816; an Experiment 1 average relative activity of 0.36; an Experiment 1 relative activity, 0.01 µg/ml of 0.24; an Experiment 1 relative activity, 0.1 µg/ml of 0.42. In addition, the Experiment 1 relative activity, 1 µg/ml is 0.41; the Experiment 2 CFSE fluorescence intensity, 0.1 µg/ml is 2050; the Experiment 2 CFSE fluorescence intensity, 1 µg/ml came to 1650; the Experiment 2 average relative activity is 0.53. The molecule also displayed an Experiment 2 relative activity, 0.1 µg/ml of 0.43 and an Experiment 2 relative activity, 1 µg/ml of 0.64.

For B11, the Average increased factor of the activity over wild-type IgG2 of two experiments came out at 9.8; the Average relative activity of two experiments came out at 0.43; the Experiment 1 CFSE fluorescence intensity, 0.01 µg/ml turned out to be 898; the Experiment 1 CFSE fluorescence intensity, 0.1 µg/ml amounted to 777. For the same molecule, the Experiment 1 CFSE fluorescence intensity, 1 µg/ml was determined as 843; the Experiment 1 average relative activity came out at 0.37; the Experiment 1 relative activity, 0.01 µg/ml is 0.26; the Experiment 1 relative activity, 0.1 µg/ml stood at 0.48. The Experiment 1 relative activity, 1 µg/ml was found to be 0.36; the Experiment 2 CFSE fluorescence intensity, 0.1 µg/ml came out at 2160; the Experiment 2 CFSE fluorescence intensity, 1 µg/ml came out at 1600; the Experiment 2 average relative activity came out at 0.52. The molecule also returned an Experiment 2 relative activity, 0.1 µg/ml of 0.37 and an Experiment 2 relative activity, 1 µg/ml of 0.67.

The values are drawn from patent US20230220042A1 (SHANGHAI JIAO TONG UNIVERSITY SCHOOL OF MEDICINE, published 2023).
